“Also recorded” adds a separate entry of the source.
System: human OPC
Test: Expression of MBP in human OPC in primary culture stimulated by MSRV-Env, with or without GNbAC1 (immunocytochemistry)
Type: cell-based
Conditions: for MBP positive cells, normalized to control condition (buffer = 100%): pooled data
Protocol: Full length recombinant MSRV-Env was produced and purified by PX′Therapeutics (548 aa; 61.44 KDa) (batch 110719-1). The initial concentration was 0.6 mg/ml (9.76 μM). MSRV-Env Buffer (20 mM Trizma-HCl, pH 7.5, 150 mM NaCl, 1.5% SDS, 10 mM DTT) was provided by PX′Therapeutics. This solution was used as a negative control. GNbAC1 (Batch T96/bAC1/B1; GMP production) was produced and purified by Polymun Scientific, Vienna, Austria. The initial concentration was 10 mg/ml (68.03 μM).
Human OPC were stimulated with the different treatments either by coating solutions on the cell culture plate surface before cells seeding or by adding them in the cell culture medium after cells seeding. In any case, labtek 8-wells chamber slides (Nunc) were previously coated with poly-L-lysine (Sigma-Aldrich) overnight at 37° C.
The different treatments were diluted in PBS under a sterile laminar flow hood (Fischer Bioblock, France) and the Labtek 8 wells chambers slides (Nunc; 250 μl per well) were coated as follows: • MSRV-Env (1 μg/ml) coated for 2 hours at 37° C. • MSRV-Env Buffer (same dilution than MSRV-Env) coated for 2 hours at 37° C. • MSRV-Env+GNbAC1 A1: MSRV-Env (1 μg/ml) and GNbAC1 (7.35 μg/ml=50 nM) mixture coated for 2 hours at 37° C. • MSRV-Env+GNbAC1 A2: MSRV-Env (1 μg/ml) and GNbAC1 (29.4 μg/ml=200 nM) mixture coated for 2 hours at 37° C. • MSRV-Env+GNbAC1 B1: MSRV-Env (1 μg/ml) coated for 2 hours at 37° C., washed with PBS and subsequently coated with GNbAC1 (7.35 μg/ml=50 nM) for 1 hour at 37° C. • MSRV-Env+GNbAC1 B2: MSRV-Env (1 μg/ml) coated for 2 hours at 37° C., washed with PBS and subsequently coated with GNbAC1 (29.4 μg/ml=200 nM) for 1 hour at 37° C. • GNbAC1 A1 alone: GNbAC1 (7.35 μg/ml=50 nM) coated for 2 hours at 37° C. • GNbAC1 A2 alone: GNbAC1 (29.4 μg/ml=200 nM) coated for 2 hours at 37° C. • GNbAC1 B1 alone: PBS for 2 hours at 37° C., then coated with GNbAC1 (7.35 μg/ml=50 nM) for 1 hour at 37° C. • GNbAC1 B2 alone: PBS for 2 hours at 37° C., then coated with GNbAC1 (29.4 μg/ml=200 nM) for 1 hour at 37° C. • BSA (1 μg/ml) coated for 2 hours at 37° C. • BSA+GNbAC1 A1: BSA (1 μg/ml) and GNbAC1 (7.35 μg/ml=50 nM) mixture coated for 2 hours at 37° C. • BSA+GNbAC1 A2: BSA (1 μg/ml) and GNbAC1 (29.4 μg/ml=200 nM) mixture coated for 2 hours at 37° C. • BSA+GNbAC1 B1: BSA (1 μg/ml) coated for 2 hours at 37° C., washed with PBS and subsequently coated with GNbAC1 (7.35 μg/ml=50 nM) for 1 hour at 37° C. • BSA+GNbAC1 B2: BSA (1 μg/ml) coated for 2 hours at 37° C., washed with PBS and subsequently coated with GNbAC1 (29.4 μg/ml=200 nM) for 1 hour at 37° C. Human Oligodendrocyte Precursor Cells Culture
The vial containing the human OPC was placed in a 37° C. water bath and gently agitated by rotation until the content was completely thawed. The cells were gently resuspended with a 1 ml Gilson pipette. Then, they were diluted in complete OPCM, and seeded into the 8-wells labtek culture vessels (7000 cells/cm^2=10000 cells per well) previously coated with poly-L-lysine (0.01%, Sigma) and with (or without) the treatments described above (see 3.2.1.1) under a sterile laminar flow hood (Fischer Bioblock, France). The cultures were incubated at 37° C.; 5% CO2 until subsequent immunocytochemistry experiments. The growth medium was changed the next day to remove the residual DMSO and unattached cells in the cultures treated for 72 hours.
After 3 hours of pre-cultivation (see 3.2.1.2) of the human OPC in the 8-well labtek culture vessels, the cells were incubated at 37° C. for 24 hours or 72 hours in 8-wells labteks (250 μl/well) with the addition of the following solutions: • MSRV-Env Buffer, used as a negative control, added in complete cell culture medium • MSRV-Env added at 3 nM (0.184 μg/ml) in complete cell culture medium • MSRV-Env (3 nM)+GNbAC1 (200 nM; 29.4 μg/ml) mixture added in complete cell culture medium • GNbAC1 (200 nM) alone added in complete cell culture medium Expression of TLR4 and Myelination Markers in OPC In Vitro […]

B1: GNbAC1: recombinant humanized anti-Env IgG4 monoclonal antibody comprising the CDRs of SEQ ID No. 1 to 6 (antibody, chains of the INN, looked up, V domains shown)
VH: QVQLVQSGAEVKKPGSSVKVSCKASGYTFTDYEMHWVRQAPGQGLEWIGAVAPETGGTAYNQKFKGRATITADKSTSTAYMELSSLRSEDTAVYYCTSTVVPFAYWGQGTLVTVSS
VL: QIQLTQSPSSLSASVGDRVTITCSASSSVSYMYWYQQKPGKAPKAWIYRTSNLASGVPSRFSGSGSGTDYTLTISSLQPEDFATYYCQQYQSLPLTFGGGTKVEIK
In the case of B1, the “effect on the decrease of MBP positive cells induced by coated MSRV-Env” value (GNbAC1 50 nM, both protocols, 72 hours) is reported as “partial effect; also recorded: partially inhibits MSRV-Env effect”, the “effect on the decrease of MBP positive cells induced by coated MSRV-Env” value (GNbAC1 200 nM, both protocols, 72 hours) is reported as “complete inhibition” and the “effect on the inhibition of MBP expression induced by coated MSRV-Env” value (GNbAC1 200 nM, both protocols, 72 hours, OPC ICC 03) is reported as “completely reverses”. The “percentage of MBP positive cells” value (GNbAC1-A 50 nM, coated MSRV-Env 1 μg/ml, 72 hours, OPC ICC 02) was 69±2%, the “MBP positive cells, normalized to control condition (buffer = 100%)” value (GNbAC1-A 200 nM with coated MSRV-Env) was 101±2% and the “percentage of MBP positive cells” value (GNbAC1-A 200 nM, coated MSRV-Env 1 μg/ml, 72 hours, OPC ICC 02) was 73±2%. The “percentage of MBP positive cells” value (GNbAC1-A 200 nM, coated MSRV-Env 1 μg/ml, 72 hours, OPC ICC 03) was 80±2%, the “percentage of MBP positive cells” value (GNbAC1-B 50 nM, coated MSRV-Env 1 μg/ml, 72 hours, OPC ICC 02) was 68±2% and the “MBP positive cells, normalized to control condition (buffer = 100%)” value (GNbAC1-B 200 nM with coated MSRV-Env) was 97±2%. For the same molecule, the “percentage of MBP positive cells” value (GNbAC1-B 200 nM, coated MSRV-Env 1 μg/ml, 72 hours, OPC ICC 02) was 74±2%, the “percentage of MBP positive cells” value (GNbAC1-B 200 nM, coated MSRV-Env 1 μg/ml, 72 hours, OPC ICC 03) was 75±2% and the “percentage of MBP positive cells” value (MSRV-Env 3 nM + GNbAC1 200 nM in culture medium, 72 hours) was 76±2%. For the same molecule, the “effect on the decrease of MBP expression induced by MSRV-Env in culture medium” value (MSRV-Env 3 nM, GNbAC1 200 nM, 72 hours) was “inhibits completely this effect”.

From US10752675B2, “Compounds for treating the remyelination blockade in diseases associated with the expression of HERV-W envelope protein” (GENEURO S.A., priority 2012, dated 2020)
